Laboratory results as given in publication PMC3399738.

What was measured:
RPA (human heterotrimer) [1] = target: T1, RPA (human heterotrimer) (human, UniProt P27694;P15927;P35244 1-616;1-270;1-121); experiment: EMSA
RPA (human heterotrimer) [2] = target: T1, RPA (human heterotrimer); experiment: EMSA; remark: listed apart in the source
SSB = SSB (Escherichia coli, UniProt P0AGE0 1-178); experiment: pull-down
RPA (human heterotrimer) [3] = target: T1, RPA (human heterotrimer); experiment: pull-down

T1 sequence (P27694 whole entry, chain 1 of 3): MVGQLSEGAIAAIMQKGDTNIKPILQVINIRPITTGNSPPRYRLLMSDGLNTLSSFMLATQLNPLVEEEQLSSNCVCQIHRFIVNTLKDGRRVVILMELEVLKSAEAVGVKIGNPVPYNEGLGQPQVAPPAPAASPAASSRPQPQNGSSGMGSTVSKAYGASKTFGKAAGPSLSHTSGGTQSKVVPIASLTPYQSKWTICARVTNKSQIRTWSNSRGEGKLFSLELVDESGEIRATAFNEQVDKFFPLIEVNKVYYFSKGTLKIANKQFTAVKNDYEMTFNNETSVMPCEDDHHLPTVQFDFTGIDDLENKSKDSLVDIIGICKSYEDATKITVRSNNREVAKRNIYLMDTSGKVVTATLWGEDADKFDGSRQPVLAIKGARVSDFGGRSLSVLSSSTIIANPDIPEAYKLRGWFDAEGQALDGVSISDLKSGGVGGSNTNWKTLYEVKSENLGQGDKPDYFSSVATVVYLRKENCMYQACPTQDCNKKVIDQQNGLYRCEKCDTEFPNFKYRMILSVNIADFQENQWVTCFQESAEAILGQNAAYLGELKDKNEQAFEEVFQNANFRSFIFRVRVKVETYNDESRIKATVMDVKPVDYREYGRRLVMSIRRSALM
T1 sequence (P15927 whole entry, chain 2 of 3): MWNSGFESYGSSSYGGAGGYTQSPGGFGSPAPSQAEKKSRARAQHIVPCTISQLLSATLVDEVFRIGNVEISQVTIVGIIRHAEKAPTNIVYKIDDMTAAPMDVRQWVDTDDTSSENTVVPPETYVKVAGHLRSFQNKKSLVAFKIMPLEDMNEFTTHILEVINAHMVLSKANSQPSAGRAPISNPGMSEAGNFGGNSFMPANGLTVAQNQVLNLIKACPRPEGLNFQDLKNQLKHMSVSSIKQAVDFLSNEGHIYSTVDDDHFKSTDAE
T1 sequence (P35244 whole entry, chain 3 of 3): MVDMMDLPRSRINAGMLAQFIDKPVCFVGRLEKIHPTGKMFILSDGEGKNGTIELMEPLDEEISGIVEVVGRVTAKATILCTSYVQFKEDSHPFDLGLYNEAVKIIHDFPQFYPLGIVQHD
SSB, sequence (P0AGE0 whole entry): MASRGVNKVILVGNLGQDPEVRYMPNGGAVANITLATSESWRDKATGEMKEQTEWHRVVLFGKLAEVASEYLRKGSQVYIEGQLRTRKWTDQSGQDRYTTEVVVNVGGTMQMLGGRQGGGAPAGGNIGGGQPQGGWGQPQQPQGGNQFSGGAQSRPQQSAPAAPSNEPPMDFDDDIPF

TTTTTTTTTTTTTTTTTTTTTTTTTTTTTT (ssDNA) [polyT(30) 5' IRDye-700]: binds (RPA (human heterotrimer) [1]).

B1: dT30/dA30 duplex (dsDNA)
DNA 1: TTTTTTTTTTTTTTTTTTTTTTTTTTTTTT
DNA 2: AAAAAAAAAAAAAAAAAAAAAAAAAAAAAA
B1: binds (RPA (human heterotrimer) [2]).

TTTTTTTTTTTTTTTTTTTTTTTTTTTTTT (ssDNA) [polyT(30) 3' biotin]: binds (SSB); binds (RPA (human heterotrimer) [3]).
